The values below come from patent publication US20250297009A1 (BIOTHEUS, published 2025).

Assay [1] has as its target T1, cynomolgus monkey PD-1 (Uniprot: BOLAJ3 as printed) on CHO-S cells (cynomolgus monkey).
T1 construct: whole, on cells; also called CHO-cynoPD-1 cells; CHO cells overexpressing cynomolgus monkey PD-1
The experiment in a line: flow cytometry on CHO cells overexpressing cynomolgus monkey PD-1 according to legend paragraph 157 and Example 11 (the title on the sheet prints CHO-huPD-1), fluorescent secondary antibody.

Assay [2] deals with T2, Human PD-1-his protein (human PD-1 extracellular domain with his tag) (human, UniProt Q15116 25-170).
T2 construct: also called PD-1-his antigen; not shown: his tag
The experiment in a line: BLI (ForteBio), antibody loaded on AHQ sensor, 100 nM PD-1-his in solution, monovalent, 1:1 model. The method, then: (§1) The binding dissociation constant (KD) values of the antibody obtained in Example 1 binding to human and cynomolgus monkey PD-1 were determined by biofilm optical interference technology (ForteBio). Fortebio affinity determination was carried out according to the existing method (Este, P et al. High throughput solution-based measurement of antibody-antigen affinity and epitope binning. Mabs, 2013.5(2): p. 270-8), and the extracellular amino acid sequences of human and cynomolgus monkey PD-1 were as set forth in SEQ ID NO:20 and 21, respectively.
(§2) The sensor loaded with antibody was exposed to 100 nM PD-1-his antigen until the plateau phase, and then the sensor was transferred to the assay buffer for at least 2 minutes for dissociation rate measurement. The kinetic analysis was performed using a 1:1 binding model.

The target in assay [3] is T3, Cynomolgus monkey PD-1-his protein (cynomolgus monkey PD-1 extracellular domain with his tag) (cynomolgus monkey, UniProt Q15116 25-165 (human entry)).
T3 construct: also called Cyno PD-1-his; not shown: his tag
T3 chain: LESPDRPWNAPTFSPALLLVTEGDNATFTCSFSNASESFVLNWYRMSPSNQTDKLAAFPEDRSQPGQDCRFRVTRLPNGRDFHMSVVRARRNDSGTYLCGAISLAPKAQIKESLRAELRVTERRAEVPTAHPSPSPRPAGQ
The assay is described as above. Here is the method: as §1, §2

Assay [4] addresses T1, cynomolgus monkey PD-1 (Uniprot: BOLAJ3 …). The experiment in a line: flow cytometry on CHO-S cells overexpressing cynomolgus monkey PD-1. From the text: (§3) By transfecting human PD-1 (Uniprot: Q15116), cynomolgus monkey PD-1 (Uniprot: BOLAJ3) cDNA pCHO1.0 vector (purchased from Invitrogen) into CHO-S cellsand following with pressure screening, CHO-S cells overexpressing human PD-1 (CHO-huPD-1 cells) and CHO-S cells overexpressing cynomolgus monkey PD-1 (CHO-cynoPD-1 cells) were produced. The overexpressed cells after expansion culture were adjusted to the appropriate cell density and added to a 96-well flow plate, centrifuged and then added with gradiently diluted samples, and incubated at 4° C. for 30 minutes. Washing was performed twice with PBS, fluorescent secondary antibody correspondingly diluted to the appropriate concentration was added, incubated at 4° C. for 30 minutes, and washed twice with PBS. The cells were resuspended in PBS, and detected on a CytoFlex flow cytometer, and the corresponding MFI was calculated. Graphpad software was used for graphical analysis to obtain EC₅₀ values.

The target in assay [5] is T4, human PD-1 (Uniprot: Q15116) on cells (human, UniProt Q15116 25-288).
T4 construct: whole, on cells; The cell type is named under assay or readout; also called CHO-huPD-1 cells; CHO cells overexpressing human PD-1
The experiment in a line: flow cytometry on CHO cells overexpressing human PD-1, fluorescent secondary antibody.

Assay [6] has as its target T4, human PD-1 (Uniprot: Q15116) on cells. The experiment in a line: flow cytometry blocking assay on CHO cells overexpressing human PD-1; blocked ligand: bio-human PD-L1-Fc, SA-PE detection.
For assay [7] the target is unchanged. Nature of the assay: flow cytometry on activated human primary T cells, fluorescent secondary antibody.
Assay [8] has the same target. Nature of the assay: flow cytometry on CHO-S cells overexpressing human PD-1.
Source text: as §3

Assay [9] shares this target. Nature of the assay: flow cytometry, competition with bio-human PD-L1-Fc (0.5 µg/mL) on CHO-huPD-1 cells.

T4 sequence (Q15116 25-288, one chain of several): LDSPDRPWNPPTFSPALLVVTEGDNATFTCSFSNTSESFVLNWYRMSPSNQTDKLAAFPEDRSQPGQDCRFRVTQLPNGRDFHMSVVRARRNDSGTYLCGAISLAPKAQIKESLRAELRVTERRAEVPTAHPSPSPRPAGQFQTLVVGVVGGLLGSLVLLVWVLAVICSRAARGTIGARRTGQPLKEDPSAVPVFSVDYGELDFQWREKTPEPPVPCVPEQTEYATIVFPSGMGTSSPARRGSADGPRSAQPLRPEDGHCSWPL
T2 sequence (Q15116 25-170): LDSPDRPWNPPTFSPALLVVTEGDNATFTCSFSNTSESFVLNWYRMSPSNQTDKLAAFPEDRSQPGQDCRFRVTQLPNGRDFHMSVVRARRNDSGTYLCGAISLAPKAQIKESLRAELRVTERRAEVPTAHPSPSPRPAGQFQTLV

B1: anti-PD-1 antibody ADI-54872 (antibody, human IgG1, kappa, L234A L235A, V domains shown)
VH: QVQLVQSGAEVKKPGASVKVSCKASGYTFTEYYIYWVRQAPGQGLEWIGGINPSNGGTNFNEKFKPRVTMTVDTSTSTAYMELSSLRSEDTAVYYCTVRDFRFDKGFKYWGQGTLVTVSS
VL: EIVLTQSPATLSLSPGERATLSCRASKSVSTSGLNYVHWYQRKPGQAPRLLIYLGSYLDSGVPARFSGSGSGTDFTLTISSLEPEDFAVYYCQQSWELPLTFGGGTKVEIKR
notes: Full-length IgG (human IgG1 LALA constant region), expressed in HEK293 and purified on Protein A
Consider B1, for which the “EC50 (read off the curve)” value in assay [1] is ~6 nM; in [5], ~7 nM; in [7], ~1 nM. In addition, the Kd in [2] was found to be 0.453 nM; in assay [3], 0.201 nM. Besides, the EC50 in [4] is 4.32 nM; in assay [8] it was 3.79 nM. Further, in assay [6], the “IC50 (read off the curve)” value is ~7 nM. The molecule further came in with an IC50 in assay [9] of 3.74 nM.
